Measurements from US20060153775A1.
Starred links: 1 amine or outer side, 2 acyl side, 3 side chain; linkers in the order of their positions; H or OH if unused. Primed or numbered codes have the meaning given here. DPPE′ = dipalmitoylphosphatidylethanolamine; Glutaryl = O=C(CCCC(=O)[*:2])[*:1]

Tests used:
[1] = molecular target: binding target for TKPPR on HAEC (human aortic endothelial cells); assay: static bubble binding to HAEC, 1% D47, no competitor
[2] = molecular target: binding target for TKPPR on HAEC (human aortic endothelial cells); assay: static bubble binding to HAEC treated 4 h with 5 ng/mL TNFα, 5% composition
[3] = molecular target: binding target for TKPPR on RAEC (rabbit aortic endothelial cells); assay: static bubble binding to RAEC, 5% composition, no competitor
[4] = molecular target: KB cells (human epidermoid carcinoma cell line); assay: static bubble binding to KB cells, 5% composition
[5] = molecular target: binding target for TKPPR on HAEC (human aortic endothelial cells); assay: static bubble binding to HAEC, manual count
[6] = molecular target: binding target for TKPPR on HAEC (human aortic endothelial cells); assay: static bubble binding to HAEC, 5% composition, no competition
[7] = molecular target: binding target for TKPPR on HAEC (human aortic endothelial cells); assay: static bubble binding to HAEC, 1% composition, no competition
[8] = molecular target: binding target for TKPPR on HAEC (human aortic endothelial cells); assay: static bubble binding to HAEC, 5% composition, no competitor
[9] = molecular target: binding target for TKPPR on HAEC (human aortic endothelial cells); assay: static bubble binding to HAEC, 5% composition, no competitor (same control as Table 13)
[10] = molecular target: binding target for TKPPR on HAEC (human aortic endothelial cells); assay: static bubble binding to HAEC treated 4 h with 1 ng/mL TNFα, 5% composition
[11] = molecular target: binding target for TKPPR on HAEC (human aortic endothelial cells); assay: static bubble binding to HAEC, 5% D47, no competitor
[12] = molecular target: binding target for TKPPR on HAEC (human aortic endothelial cells); assay: static bubble binding to HAEC, 5% composition
[13] = molecular target: binding target for TKPPR on HAEC (human aortic endothelial cells); assay: static bubble binding to HAEC, 2% D47, no competitor
[14] = molecular target: binding target for TKPPR on HAEC (human aortic endothelial cells); assay: static bubble binding to HAEC, 5% composition, untreated cells
[15] = molecular target: binding target for TKPPR on HAEC (human aortic endothelial cells); assay: static bubble binding to HAEC treated 4 h with 10 ng/mL TNFα, 5% composition
[16] = molecular target: binding target for TKPPR on HAEC (human aortic endothelial cells); assay: static bubble binding to HAEC, 10% D47, no competitor

Bubbles Bound [1]: 737 bubbles | Bubbles Bound- 1% [1]: 1640 bubbles | TKPPR-Bubbles bound [2]: 1360 bubbles | RAEC bubbles bound [3]: 751 bubbles | bubble binding [4]: 56 bubbles | % more bubbles bound than with the 1% composition [5]: 31% | Bubbles Bound [6]: 726 bubbles | Bubbles Bound [7]: 555 bubbles | Bubbles Bound [8]: 1250 bubbles | HAEC bubbles bound [8]: 1420 bubbles | Bubbles Bound [9]: 1250 bubbles | TKPPR-Bubbles bound [10]: 1520 bubbles | Bubbles Bound- 5% [11]: 2780 bubbles | Bubbles Bound [12]: 7050 bubbles | bubble binding [12]: 1120 bubbles | Bubbles Bound [13]: 953 bubbles | Bubbles Bound % [13]: 100 % of control | TKPPR-Bubbles bound [14]: 950 bubbles | TKPPR-Bubbles bound [15]: 1020 bubbles | Bubbles Bound- 10% [16]: 1860 bubbles
Binder: {DPPE′-Glutaryl}-GTKPPR-OH (also: held in phospholipid shell of microbubbles) [gas-filled microbubbles containing DPPE-Glu-GTKPPR (D47), composition I of Example 5]
